Results: paper PMC9250616
pKd: −log10 of the molar value. Read-outs that look alike come from different tables or passages of the source.

Assays:
[1] = biological target: Protective antigen (Bacillus anthracis) (UniProt P13423); conditions: cited from earlier work
[2] = biological target: Laminin-111; experiment: ELISA
[3] = biological target: Protective antigen (Bacillus anthracis) (UniProt P13423); conditions: cited from earlier work; remark: listed apart in the source

Substance: TEM8 (from UniProt Q9H6X2)
- pKd [1]: 8.00

Substance: biotinylated CMG2-AviTag construct (capillary morphogenesis gene 2, anthrax toxin receptor 2) (from UniProt P58335 34-489)
- pKd [2]: 6.30

Substance: CMG2 (from UniProt P58335)
- pKd [3]: 9.70
